The target of one assay is T1, hiR2-FL-D515E-T7 (human, UniProt Q6PJF5 1-856).
T1 sequence: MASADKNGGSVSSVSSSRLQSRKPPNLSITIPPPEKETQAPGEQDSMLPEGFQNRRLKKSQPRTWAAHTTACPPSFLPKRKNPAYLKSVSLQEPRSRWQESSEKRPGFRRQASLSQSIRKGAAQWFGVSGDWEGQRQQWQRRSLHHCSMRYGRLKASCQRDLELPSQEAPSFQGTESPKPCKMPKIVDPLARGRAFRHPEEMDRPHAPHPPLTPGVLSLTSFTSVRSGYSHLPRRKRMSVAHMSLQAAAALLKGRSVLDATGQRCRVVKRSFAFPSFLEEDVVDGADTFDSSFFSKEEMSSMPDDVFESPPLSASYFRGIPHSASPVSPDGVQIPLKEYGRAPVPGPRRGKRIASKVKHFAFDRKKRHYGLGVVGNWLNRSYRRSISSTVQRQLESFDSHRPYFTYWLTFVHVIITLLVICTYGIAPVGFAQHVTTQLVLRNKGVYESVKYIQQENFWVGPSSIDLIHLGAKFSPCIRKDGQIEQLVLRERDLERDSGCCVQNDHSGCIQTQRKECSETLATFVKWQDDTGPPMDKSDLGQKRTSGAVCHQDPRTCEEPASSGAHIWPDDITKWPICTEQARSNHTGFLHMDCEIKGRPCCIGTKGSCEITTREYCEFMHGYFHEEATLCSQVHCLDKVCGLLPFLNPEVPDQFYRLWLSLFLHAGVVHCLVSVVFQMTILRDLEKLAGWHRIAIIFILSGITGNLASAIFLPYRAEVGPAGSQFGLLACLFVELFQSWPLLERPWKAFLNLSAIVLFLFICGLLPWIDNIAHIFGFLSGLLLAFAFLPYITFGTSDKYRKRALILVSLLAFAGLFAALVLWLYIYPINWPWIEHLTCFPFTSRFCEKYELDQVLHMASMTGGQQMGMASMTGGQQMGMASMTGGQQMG
Kind of assay: FACS, MEF-DKO cells, 3 µg/ml. In general terms: Flow cytometry measures light scatter and fluorescence of single cells or particles in a stream.

Another assay addresses T2, hiR2-FL-H505R-T7 (human, UniProt Q6PJF5 1-856).
T2 sequence: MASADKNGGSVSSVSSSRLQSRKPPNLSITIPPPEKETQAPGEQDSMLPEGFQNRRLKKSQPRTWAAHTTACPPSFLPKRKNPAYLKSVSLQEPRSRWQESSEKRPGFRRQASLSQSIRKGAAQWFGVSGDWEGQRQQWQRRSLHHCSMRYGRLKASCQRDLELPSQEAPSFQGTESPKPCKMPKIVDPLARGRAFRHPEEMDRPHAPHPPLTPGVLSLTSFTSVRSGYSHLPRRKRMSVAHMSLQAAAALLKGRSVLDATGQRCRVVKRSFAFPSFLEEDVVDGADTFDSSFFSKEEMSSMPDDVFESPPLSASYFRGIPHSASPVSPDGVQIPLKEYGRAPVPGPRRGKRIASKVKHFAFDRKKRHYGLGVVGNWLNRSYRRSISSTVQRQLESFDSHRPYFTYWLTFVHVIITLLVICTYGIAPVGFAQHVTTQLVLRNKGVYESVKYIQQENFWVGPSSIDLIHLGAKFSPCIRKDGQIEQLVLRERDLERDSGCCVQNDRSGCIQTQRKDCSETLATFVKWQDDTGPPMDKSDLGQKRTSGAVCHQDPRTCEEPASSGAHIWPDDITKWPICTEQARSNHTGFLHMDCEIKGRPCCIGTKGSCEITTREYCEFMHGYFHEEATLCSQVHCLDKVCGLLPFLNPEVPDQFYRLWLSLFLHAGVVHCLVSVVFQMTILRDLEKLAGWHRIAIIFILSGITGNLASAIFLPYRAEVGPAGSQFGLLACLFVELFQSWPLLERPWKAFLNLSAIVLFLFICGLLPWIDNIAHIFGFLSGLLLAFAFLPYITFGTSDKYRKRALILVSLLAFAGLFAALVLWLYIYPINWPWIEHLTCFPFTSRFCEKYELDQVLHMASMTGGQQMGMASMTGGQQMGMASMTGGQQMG
Description: FACS, MEF-DKO cells, 3 µg/ml.

B1: antibody 48 (antibody, V domains shown)
VH: QVQLQQSGTELVRPGTSVKVSCKASGYAFTNYLIEWVKQRPGQGLEWIGVINPGSGFTKYNEKFKGKATLTADKSSSTVYMHLSSLTSEDSAVYFCARGLYRAMDYWGQGTSVTVSS
VL: DIQMTQSPASQSASLGESVTITCLASQTIATWLAWYQQKPGKSPQLLIYGATTLADGVPSRFSGGGSGTKFSFKISSLQAEDFVSYYCQQLYSTPYTFGGGTKLEIK
notes: mouse IgG, kappa light chain; also called clone #48; purified antibody 48
With B1, the “loss of binding vs wild type” value with hiR2-FL-D515E-T7 was not below 30%.

B2: antibody 50 (antibody, V domains shown)
VH: QVQLQQSGAELVRPGASVKVSCKASGYAFSNYLIEWVKQRPGQGLEWIGVINPGSGFTKYNEKFKGKATLTADKSSSTAYMQLSSLTSEDSAVYFCARGLYRAMDYWGQGTSVTVSS
VL: DIQMTQSPASQSASLGESVTITCLASQTIGTWLAWYQQKPGKSPQLLIYAAASLADGVPSRFSGGGSGTKFSFKISSLQAEDFVNYYCQQIYSTPYTFGGGTKLEIK
notes: mouse IgG, kappa light chain; also called clone #50; purified antibody 50
For B2, the “loss of binding vs wild type” value with hiR2-FL-H505R-T7 is not below 95%.

Values taken from patent publication US20240287172A1 (SCIRHOM, published 2024).
